From patent US20250270341A1 (Alector, published 2025)
Changes are numbered by the printed parent chain.

T1: Cyno CD98hc ECD Avi-His (cynomolgus macaque, UniProt P08195 105-529 (human entry))
T1 construct: biotinylated on the Avi tag where captured on streptavidin; also called Cyno CD98-AVI-His; Cyno CD98hc-AVI-His
T1 chain: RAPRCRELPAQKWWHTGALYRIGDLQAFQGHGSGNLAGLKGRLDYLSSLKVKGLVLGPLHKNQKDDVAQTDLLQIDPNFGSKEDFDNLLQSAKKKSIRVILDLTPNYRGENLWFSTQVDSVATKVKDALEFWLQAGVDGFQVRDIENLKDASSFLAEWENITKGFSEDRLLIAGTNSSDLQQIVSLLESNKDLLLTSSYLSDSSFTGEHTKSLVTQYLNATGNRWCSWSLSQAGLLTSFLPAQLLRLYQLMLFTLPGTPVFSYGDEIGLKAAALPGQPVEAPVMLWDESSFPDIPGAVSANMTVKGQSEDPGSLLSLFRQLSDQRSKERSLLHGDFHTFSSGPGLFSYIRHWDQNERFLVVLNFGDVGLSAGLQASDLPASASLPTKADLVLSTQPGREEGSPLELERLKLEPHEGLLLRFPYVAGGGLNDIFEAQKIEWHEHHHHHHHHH

T2: huCD98hc ECD Avi-His (human, UniProt P08195 105-529)
T2 construct: biotinylated on the Avi tag where captured on streptavidin; also called Human CD98-AVI-His; Human CD98hc-AVI-His
T2 sequence: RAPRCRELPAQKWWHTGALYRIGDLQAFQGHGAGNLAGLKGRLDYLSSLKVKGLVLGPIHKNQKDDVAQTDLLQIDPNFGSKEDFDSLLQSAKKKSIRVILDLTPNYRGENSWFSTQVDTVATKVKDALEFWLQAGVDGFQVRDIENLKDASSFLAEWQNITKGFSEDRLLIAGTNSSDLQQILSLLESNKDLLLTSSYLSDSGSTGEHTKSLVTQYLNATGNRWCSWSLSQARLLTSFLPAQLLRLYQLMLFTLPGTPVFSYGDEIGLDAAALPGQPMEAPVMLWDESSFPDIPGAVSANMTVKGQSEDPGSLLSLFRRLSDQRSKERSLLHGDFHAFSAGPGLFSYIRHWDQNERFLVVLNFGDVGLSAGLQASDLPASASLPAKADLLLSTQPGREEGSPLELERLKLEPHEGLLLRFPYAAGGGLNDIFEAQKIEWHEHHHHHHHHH

T3: Full length mouse CD98hc on CHO cells (mouse, UniProt P10852 1-526)
T3 construct: CHO cells stably overexpressing it; also called CHO-mouse CD98hc; CHO-mCD98hc
T3 sequence: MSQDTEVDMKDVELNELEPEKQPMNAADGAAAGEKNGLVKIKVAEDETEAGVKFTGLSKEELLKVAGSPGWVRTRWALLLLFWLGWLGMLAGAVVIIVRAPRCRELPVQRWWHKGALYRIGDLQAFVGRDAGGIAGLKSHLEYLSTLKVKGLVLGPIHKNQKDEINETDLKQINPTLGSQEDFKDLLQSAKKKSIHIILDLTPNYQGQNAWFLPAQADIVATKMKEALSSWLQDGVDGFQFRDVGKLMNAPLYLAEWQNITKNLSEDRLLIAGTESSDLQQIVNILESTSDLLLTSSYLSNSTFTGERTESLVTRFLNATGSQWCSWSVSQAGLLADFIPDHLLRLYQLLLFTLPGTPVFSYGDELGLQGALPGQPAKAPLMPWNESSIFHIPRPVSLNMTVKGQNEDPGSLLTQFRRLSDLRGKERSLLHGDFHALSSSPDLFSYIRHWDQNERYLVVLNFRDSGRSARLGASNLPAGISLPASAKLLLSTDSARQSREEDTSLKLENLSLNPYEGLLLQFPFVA

T4: muCD98hc ECD Avi-His (mouse, UniProt P10852 100-526)
T4 construct: biotinylated on the Avi tag where captured on streptavidin; also called Mouse CD98-AVI-His; Mouse CD98hc-AVI-His
T4 sequence: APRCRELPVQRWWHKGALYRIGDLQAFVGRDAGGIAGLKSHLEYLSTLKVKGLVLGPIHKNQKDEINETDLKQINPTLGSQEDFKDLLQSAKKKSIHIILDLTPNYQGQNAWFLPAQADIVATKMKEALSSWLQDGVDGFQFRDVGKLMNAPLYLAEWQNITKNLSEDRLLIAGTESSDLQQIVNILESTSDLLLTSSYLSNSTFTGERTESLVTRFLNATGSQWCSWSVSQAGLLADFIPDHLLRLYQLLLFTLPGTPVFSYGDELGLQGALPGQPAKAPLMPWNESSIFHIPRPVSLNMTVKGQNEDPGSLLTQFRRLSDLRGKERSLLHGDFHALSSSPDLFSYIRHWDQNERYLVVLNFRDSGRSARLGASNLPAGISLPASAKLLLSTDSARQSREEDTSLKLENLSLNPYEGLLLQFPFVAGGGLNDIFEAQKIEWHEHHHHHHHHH

T5: Full length human CD98hc on CHO cells (human)
T5 construct: CHO cells stably overexpressing it; also called CHO-human CD98hc; CHO-huCD98hc
T5 chain: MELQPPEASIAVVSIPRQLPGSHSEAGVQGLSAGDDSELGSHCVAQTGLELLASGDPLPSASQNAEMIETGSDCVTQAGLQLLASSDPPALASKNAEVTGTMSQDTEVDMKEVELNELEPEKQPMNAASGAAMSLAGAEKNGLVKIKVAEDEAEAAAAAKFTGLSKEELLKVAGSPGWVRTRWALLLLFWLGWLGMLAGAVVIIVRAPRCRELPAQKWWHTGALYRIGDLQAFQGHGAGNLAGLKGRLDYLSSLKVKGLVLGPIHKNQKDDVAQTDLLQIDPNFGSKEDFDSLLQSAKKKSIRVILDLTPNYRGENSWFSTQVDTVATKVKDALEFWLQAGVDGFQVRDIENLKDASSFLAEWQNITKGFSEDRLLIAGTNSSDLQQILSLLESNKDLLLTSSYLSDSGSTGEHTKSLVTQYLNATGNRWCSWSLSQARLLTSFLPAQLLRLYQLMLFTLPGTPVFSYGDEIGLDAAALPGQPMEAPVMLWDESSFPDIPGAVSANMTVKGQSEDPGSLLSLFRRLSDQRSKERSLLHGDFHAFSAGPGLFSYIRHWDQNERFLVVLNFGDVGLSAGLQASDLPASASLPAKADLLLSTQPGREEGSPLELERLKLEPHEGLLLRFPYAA

T6: human CD98hc endogenously expressed on HCMEC/D3 cells (human)
T6 construct: human brain endothelial cell line
T6 chain: T5 chain

B1: CD98hc.04.064.1a (humanized, 2+1 format) (bispecific antibody)
scFv: QVQLVQSGAEVKKPGASVKVSCKASGYTFTSYWMNWVRQAPGQGLEWMGIIDPSDSETHYAQKFQGRVTMTVDKSTSTVYMELSSLRSEDTAVYYCARASYGKGYFDYWGQGTLVTVSSGGSEGKSSGSGSESKSTGGSDIVMTQSPDSLAVSLGERATINCKSSQSLLNNINQKNYLAWYQQKPGQPPKLLIYFASTRESGVPDRFSGSGSGTDFTLTISSLQAEDVAVYYCQQHYSSPFTFGGGTKVEIK
notes: tested as 2+1 bispecific (scFv on an IgG)
B2: CD98hc.04.064.4a (humanized, 2+1 format) (bispecific antibody)
scFv: B1 scFv with H59N, M70S, T76I, V79A, S85R, E89D, A92V
notes: as for B1
B3: CD98HC.04.047 (antibody, V domains shown)
VH: EVQLQESGPSLVKPSQTLSLTCSVTGDSITSGYWNWIRKFPGNKLEYMGYISYSGSTYYNPSLKGRVSITRDTSKNQYYLQLNSVTTEDTATYYCQRHVIYDYTWFAYWGQGTLVTVSA
VL: QIVLTQSPAIMSASPGEKVTISCSASSSVGYMYWLQQKPGSSPKPWIYRTSILASGVPARFSGSGSGTSYSLTISSMEAEDAATYYCQQYQSYPLTFGAGTKLELK
notes: hybridoma IgG
B4: CD98HC.04.065 (antibody, V domains shown)
VH: B3 VH with S56R, G65S
VL: B3 VL with G30H, L35F, A59D
notes: hybridoma IgG
B5: CD98HC.04.054 (antibody, V domains shown)
VH: QVQLQQSAAELARPGASVKMSCETSGYTFTRYTMNWVKQRPGQGLDWIGYINPSSGYAEYNQKFRGKTTLTADKSSSTAYIQLNSLTSEDSAVYYCVRYDGNYVYWGQGTTLTVSS
VL: DIVMTQSQKFMSTSFGDRVDITCKASQNVGSAVAWYQQKPGQSPKLLIYSASNRYTGVPDRFTGSGSGTDFTLTINNMQSADLADYFCQQYNFYPLTFGAGTKLDLK
notes: hybridoma IgG

What was measured:
Cyno CD98hc ECD Avi-His = target: T1, Cyno CD98hc ECD Avi-His; assay: SPR, Biacore T200, anti-kappa capture
Description: (§1) Binding kinetics of 2+1 anti-CD98hc bispecific antibodies to recombinant human and cynomolgus CD98hc ECD Avi-His were evaluated using a Biacore T200 instrument (Global Life Sciences Solutions USA LLC, Marlborough, MA). The 2+1 anti-CD98hc bispecific antibodies were prepared by diluting to 50 μg/mL in running buffer HBS-EP+ (Teknova) with 0.5 mg/mL BSA (MP Biomedicals) and captured by a goat anti-human kappa polyclonal antibody (Southern Biotech) surface that was prepared according to the instrument manufacturer's recommendations. Two independent experiments were performed as follows, resulting in an N of between one and […] determinations for each antibody. Estimates of affinity were generated by injecting each analyte over captured antibody on Flowcell 2, 3, or 4. CD98hc ECD Avi-His analytes were diluted with running buffer, in a series of five, three-fold serial dilutions starting from 600 nM. Analytes were injected without regeneration, from lowest to highest concentration, for 5 minutes each, and dissociation was followed for 15 minutes. After each analyte injection series, antibodies were regenerated with 10 mM glycine pH 2.0 buffer (Cytiva). Data were processed and analyzed using Biacore T200 BiaEvaluation software (Cytiva).
(§2) The equilibrium dissociation constants (KD) were calculated from the fitted association and dissociation rate constants (k-on and k-off) for 2+1 anti-CD98hc bispecific antibodies of the present disclosure binding to human and cynomolgus CD98hc ECD Avi-His. For measurements with N>1, means and standard deviation were calculated and measurements for all samples were combined and graphed using GraphPad Prism.

huCD98hc ECD Avi-His = target: T2, huCD98hc ECD Avi-His; assay: SPR, Biacore T200, anti-kappa capture
Description: as §1, §2

[1] = target: T3, Full length mouse CD98hc on CHO cells; assay: FACS, hybridoma supernatant
muCD98hc ECD Avi-His = target: T4, muCD98hc ECD Avi-His; assay: ELISA, hybridoma supernatant
Description: (§3) Briefly, 96-well polystyrene plates were coated with 5 μg/ml of streptavidin (Thermo Fisher, Cat #PI21125) in coating buffer (0.05M carbonate buffer, pH 9.6, Sigma, Cat #C3041) overnight at 4° C. Coated plates were then blocked with ELISA diluent (PBS+0.5% BSA+0.05% Tween20) for one hour. Blocking buffer was removed and human, cyno, or mouse Avi-His-tagged CD98hc and Avi-His-tagged human TfR polypeptides were added at 1 μg/ml in ELISA diluent and captured for 1 hour at room temperature. After washing three times with 300 μl of PBST (PBS+0.05% Tween20, Thermo 28352), the hybridoma cell culture supernatants or 1 μg/ml of commercially available purified mouse anti-human CD98hc monoclonal antibody (Sigma Aldrich, Cat #SAB 4700503) and rat anti-mouse CD98hc antibody (Bio-Rad Laboratories, Hercules, CA, Cat #MCA2684) were added (50 μl/well) to each well. After 30 minutes of incubation at room temperature, the plates were washed three times with 300 μl of PBST. […] After a final set of washes (3×300 μl in PBST), 50 μl/well of BioFx TMB substrate (Surmodics, Eden Praire, MN, Cat #TMBW-1000-01) was added to the wells. The reaction was then quenched after 5-10 mins with 50 μl/well of 2N sulfuric acid. The plates were read for absorbance at 450 nm on a SpectraMax M5 (Molecular Devices, Sunnyvale, CA) using SoftMax Pro software.

[2] = target: T7, Human TfR-AVI-His (control) (human, UniProt P02786 89-760); assay: ELISA, hybridoma supernatant
T7 construct: control protein; also called Avi-His-tagged human TfR; human transferrin receptor
T7 sequence (P02786 89-760 limits assumed): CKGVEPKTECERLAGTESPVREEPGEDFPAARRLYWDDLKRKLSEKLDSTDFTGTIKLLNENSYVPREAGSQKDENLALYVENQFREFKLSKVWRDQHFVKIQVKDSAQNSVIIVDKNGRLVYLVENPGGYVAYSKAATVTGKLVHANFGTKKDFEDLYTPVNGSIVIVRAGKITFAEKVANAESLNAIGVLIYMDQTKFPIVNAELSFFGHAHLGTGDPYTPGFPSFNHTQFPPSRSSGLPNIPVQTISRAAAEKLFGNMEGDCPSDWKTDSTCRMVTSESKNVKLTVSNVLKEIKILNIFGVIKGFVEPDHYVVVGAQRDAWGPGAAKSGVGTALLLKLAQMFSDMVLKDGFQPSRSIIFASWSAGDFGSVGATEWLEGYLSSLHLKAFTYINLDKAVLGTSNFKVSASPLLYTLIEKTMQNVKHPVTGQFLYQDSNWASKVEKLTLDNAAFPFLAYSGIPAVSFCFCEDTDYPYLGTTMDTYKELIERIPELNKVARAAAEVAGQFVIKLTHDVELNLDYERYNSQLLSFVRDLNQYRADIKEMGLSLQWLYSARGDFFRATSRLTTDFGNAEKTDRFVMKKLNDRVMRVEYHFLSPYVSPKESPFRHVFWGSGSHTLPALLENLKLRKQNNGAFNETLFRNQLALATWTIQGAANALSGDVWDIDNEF
Description: as §3

[3] = target: T3, Full length mouse CD98hc on CHO cells; assay: FACS, hybridoma supernatant; remark: listed apart in the source
Excerpt: The IgG positive hybridoma supernatants (898 in total) were initially screened for their ability to differentially bind CHO cells overexpressing human or mouse CD98hc cells compared to CHO parental cells by FACS. Overexpressing cells were harvested, washed, and labeled with various concentrations and combinations of CellTrace cell proliferation dyes CFSE and Violet (ThermoFisher, Cat #C34554 and Cat #34557, respectively) to create uniquely barcoded cell populations. Barcoded cells (5×10⁴ of each cell population) were aliquoted into 96-well U-bottom plates and incubated with 50 μl of hybridoma cell culture supernatant or 1 μg/ml of commercially available purified mouse anti-human CD98hc monoclonal antibody (Sigma Aldrich, Cat #SAB 4700503) and rat anti-mouse CD98hc antibody (Bio-Rad Laboratories, Hercules, CA, Cat #MCA2684) on ice for 30 minutes. […] Following this secondary antibody incubation, the cells were again washed twice with ice-cold FACS buffer and resuspended in a final volume of 50 μl of FACS buffer containing 0.25 μl/well propidium iodide (BD Biosciences, Cat #556463). Binding intensity on cells was analyzed using the FACS Canto system (BD Biosciences), with sorting gates drawn to exclude dead (i.e., propidium iodide-positive) cells. For each barcoded cell population, the ratio of APC Mean Fluorescence Intensity (MFI) divided by secondary antibody MFI was calculated for each anti-CD98hc hybridoma supernatant tested and reported in Table 5.

[4] = target: T5, Full length human CD98hc on CHO cells; assay: FACS, hybridoma supernatant
[5] = target: T6, human CD98hc endogenously expressed on …; assay: FACS, hybridoma supernatant

Row | Binder | Kd (Cyno CD98hc ECD Avi-His) [nM] | Kd (huCD98hc ECD Avi-His) [nM] | MFI ratio over secondary antibody [1] | OD450 (muCD98hc ECD Avi-His) | OD450 [2] | binding result [3] | MFI ratio over secondary antibody [4] | MFI ratio over secondary antibody [5]
1 | B1 | 880 | 31 | – | – | – | – | – | –
2 | B2 | 430 | 34 | – | – | – | – | – | –
3 | B3 | – | – | 1.2 | 0.103 | 0.0949 | no binding | – | –
4 | B4 | – | – | 1.2 | 0.0984 | 0.1 | no binding | – | –
5 | B5 | – | – | 1.2 | – | – | no binding | 52 | 218
